Biological target: mouse PD-L1 (mouse) (UniProt Q9EP73)
Assay: flow cytometry on DOdKO-mPD-L1/mCD80 cells pretreated with 10 µg/ml TKMG48

mouse PD-L1 (mouse), sequence (Q9EP73 19-290 limits assumed): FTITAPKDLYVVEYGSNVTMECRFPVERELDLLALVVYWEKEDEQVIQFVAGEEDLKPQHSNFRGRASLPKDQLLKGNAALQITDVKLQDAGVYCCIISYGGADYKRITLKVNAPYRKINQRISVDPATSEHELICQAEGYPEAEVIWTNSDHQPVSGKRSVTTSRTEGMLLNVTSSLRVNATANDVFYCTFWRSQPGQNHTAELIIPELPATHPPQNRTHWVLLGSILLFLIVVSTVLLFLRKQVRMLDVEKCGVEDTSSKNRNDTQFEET
soluble mouse PD-1 extracellular region (PD-1-EC) protein, sequence (Q02242 other isoform, or with tags, fused parts or gaps): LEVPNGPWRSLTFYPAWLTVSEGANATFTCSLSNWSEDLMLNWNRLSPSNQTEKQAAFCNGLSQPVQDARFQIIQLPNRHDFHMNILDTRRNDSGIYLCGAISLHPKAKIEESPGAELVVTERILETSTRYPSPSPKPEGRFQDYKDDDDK

## soluble mouse PD-1 extracellular region (PD-1-EC) protein (from UniProt Q02242 25-167) (receptor)
  amount of binding (mean fluorescence intensity) relative to control IgG pretreatment: 10.1 times
